Bridge positions count the residues as written; N and C are the ends. Square brackets hold non-standard residues; d marks the D form. Ends that are not written are not given here.
Key:
[1] = target: T1, human collagen type I, acid soluble, extracted from placenta (Sigma C7774) (human, UniProt P02452 162-1218; P08123 80-1119); test: dried collagen assay
T1 construct: tissue extract, gelled and dried in wells; also called dried human collagen; h-Collagen
Description: (§1) An additional 90 μL is reserved in a HPLC glass vial as a measure of the total concentration.

[2] = target: T2, rat collagen, acid soluble, type I, rat tail (Upstate 08-115) (rat, UniProt P02454 152-1207; P02466 86-1125); test: dried collagen assay
T2 construct: tissue extract, gelled and dried in wells; also called dried rat collagen
Description: as §1

T2 sequence (P02454 152-1207, chain 1 of 2): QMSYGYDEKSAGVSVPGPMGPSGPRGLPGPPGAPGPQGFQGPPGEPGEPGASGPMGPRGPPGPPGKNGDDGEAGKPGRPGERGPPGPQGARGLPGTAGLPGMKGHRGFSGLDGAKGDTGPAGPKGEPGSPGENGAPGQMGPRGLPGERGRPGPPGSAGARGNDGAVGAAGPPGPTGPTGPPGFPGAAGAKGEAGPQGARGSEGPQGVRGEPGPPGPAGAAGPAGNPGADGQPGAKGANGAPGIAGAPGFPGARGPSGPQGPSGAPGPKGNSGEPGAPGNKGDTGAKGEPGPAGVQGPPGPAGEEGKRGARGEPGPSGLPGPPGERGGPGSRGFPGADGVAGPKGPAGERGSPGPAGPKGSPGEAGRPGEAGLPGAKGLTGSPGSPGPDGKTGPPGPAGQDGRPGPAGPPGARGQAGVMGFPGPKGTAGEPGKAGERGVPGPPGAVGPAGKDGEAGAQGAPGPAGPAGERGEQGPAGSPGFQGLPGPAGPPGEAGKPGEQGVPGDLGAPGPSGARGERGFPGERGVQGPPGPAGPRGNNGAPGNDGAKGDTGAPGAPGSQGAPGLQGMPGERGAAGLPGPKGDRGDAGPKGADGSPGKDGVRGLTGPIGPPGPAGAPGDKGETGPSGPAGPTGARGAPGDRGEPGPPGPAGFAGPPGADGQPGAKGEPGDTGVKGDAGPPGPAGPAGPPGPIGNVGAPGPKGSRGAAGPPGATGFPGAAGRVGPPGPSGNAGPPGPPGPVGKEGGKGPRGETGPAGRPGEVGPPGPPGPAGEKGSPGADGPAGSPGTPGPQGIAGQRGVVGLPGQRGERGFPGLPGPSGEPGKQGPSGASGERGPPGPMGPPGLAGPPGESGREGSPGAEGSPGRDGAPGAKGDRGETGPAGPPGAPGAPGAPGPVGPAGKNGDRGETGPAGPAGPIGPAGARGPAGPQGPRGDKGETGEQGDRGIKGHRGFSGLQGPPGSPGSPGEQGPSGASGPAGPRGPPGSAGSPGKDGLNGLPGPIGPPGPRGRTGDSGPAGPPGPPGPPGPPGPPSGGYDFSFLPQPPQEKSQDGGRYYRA
T2 sequence (P02466 86-1125, chain 2 of 2): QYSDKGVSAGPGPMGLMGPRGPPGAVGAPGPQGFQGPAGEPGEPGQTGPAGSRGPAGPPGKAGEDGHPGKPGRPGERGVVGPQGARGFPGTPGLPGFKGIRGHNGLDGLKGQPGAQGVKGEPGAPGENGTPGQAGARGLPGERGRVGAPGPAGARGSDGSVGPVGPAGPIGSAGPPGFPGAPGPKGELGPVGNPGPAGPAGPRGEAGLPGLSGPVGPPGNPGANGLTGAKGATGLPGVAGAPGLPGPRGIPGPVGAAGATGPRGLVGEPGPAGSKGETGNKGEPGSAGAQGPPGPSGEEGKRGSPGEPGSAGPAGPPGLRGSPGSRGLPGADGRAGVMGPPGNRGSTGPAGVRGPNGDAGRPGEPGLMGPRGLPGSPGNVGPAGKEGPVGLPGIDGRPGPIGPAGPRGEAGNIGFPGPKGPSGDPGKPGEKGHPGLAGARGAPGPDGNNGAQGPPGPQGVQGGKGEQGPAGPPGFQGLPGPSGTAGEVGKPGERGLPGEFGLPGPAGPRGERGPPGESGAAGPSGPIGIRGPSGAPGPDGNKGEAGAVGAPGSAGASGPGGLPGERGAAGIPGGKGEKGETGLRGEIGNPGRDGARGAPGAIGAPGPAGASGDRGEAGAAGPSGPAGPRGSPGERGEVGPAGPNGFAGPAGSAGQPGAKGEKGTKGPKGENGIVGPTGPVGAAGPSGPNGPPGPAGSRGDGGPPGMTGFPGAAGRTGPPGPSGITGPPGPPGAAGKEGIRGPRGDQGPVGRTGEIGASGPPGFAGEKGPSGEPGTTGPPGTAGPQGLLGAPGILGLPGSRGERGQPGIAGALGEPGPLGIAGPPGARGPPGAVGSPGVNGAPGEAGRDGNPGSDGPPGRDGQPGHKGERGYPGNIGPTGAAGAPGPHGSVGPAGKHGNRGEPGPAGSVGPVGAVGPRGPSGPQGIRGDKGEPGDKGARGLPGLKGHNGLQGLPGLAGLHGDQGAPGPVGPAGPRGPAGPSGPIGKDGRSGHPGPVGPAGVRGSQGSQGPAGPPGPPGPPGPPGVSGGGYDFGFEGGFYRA
T1 sequence (P02452 162-1218 limits assumed, chain 1 of 2): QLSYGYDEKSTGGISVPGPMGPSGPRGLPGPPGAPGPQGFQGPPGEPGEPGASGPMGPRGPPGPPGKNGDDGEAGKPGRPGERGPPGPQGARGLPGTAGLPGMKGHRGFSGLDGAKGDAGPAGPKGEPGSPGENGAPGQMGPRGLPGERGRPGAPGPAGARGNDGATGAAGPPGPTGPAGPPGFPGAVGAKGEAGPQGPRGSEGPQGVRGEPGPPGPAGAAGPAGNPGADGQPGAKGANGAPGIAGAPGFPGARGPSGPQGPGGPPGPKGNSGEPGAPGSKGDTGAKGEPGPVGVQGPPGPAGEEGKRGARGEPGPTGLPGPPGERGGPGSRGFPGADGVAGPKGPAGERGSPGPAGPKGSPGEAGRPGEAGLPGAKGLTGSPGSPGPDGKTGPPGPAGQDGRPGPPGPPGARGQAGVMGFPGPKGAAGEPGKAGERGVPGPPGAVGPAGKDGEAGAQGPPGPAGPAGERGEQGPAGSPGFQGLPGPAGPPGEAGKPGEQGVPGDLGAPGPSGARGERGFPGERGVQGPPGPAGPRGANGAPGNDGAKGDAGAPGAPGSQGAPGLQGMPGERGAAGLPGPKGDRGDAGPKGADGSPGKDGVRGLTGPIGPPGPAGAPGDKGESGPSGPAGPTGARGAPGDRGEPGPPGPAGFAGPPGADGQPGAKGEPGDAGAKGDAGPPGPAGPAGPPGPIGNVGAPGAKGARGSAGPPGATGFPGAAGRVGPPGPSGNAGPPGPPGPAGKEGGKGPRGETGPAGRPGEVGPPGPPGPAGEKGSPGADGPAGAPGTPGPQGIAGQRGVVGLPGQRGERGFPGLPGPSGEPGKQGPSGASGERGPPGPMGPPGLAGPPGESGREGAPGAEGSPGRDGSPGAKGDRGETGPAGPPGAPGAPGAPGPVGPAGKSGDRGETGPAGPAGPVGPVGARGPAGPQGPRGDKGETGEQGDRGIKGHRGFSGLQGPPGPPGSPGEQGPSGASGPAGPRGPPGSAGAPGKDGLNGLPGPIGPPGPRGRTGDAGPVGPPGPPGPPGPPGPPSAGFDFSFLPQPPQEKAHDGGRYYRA
T1 sequence (P08123 80-1119 limits assumed, chain 2 of 2): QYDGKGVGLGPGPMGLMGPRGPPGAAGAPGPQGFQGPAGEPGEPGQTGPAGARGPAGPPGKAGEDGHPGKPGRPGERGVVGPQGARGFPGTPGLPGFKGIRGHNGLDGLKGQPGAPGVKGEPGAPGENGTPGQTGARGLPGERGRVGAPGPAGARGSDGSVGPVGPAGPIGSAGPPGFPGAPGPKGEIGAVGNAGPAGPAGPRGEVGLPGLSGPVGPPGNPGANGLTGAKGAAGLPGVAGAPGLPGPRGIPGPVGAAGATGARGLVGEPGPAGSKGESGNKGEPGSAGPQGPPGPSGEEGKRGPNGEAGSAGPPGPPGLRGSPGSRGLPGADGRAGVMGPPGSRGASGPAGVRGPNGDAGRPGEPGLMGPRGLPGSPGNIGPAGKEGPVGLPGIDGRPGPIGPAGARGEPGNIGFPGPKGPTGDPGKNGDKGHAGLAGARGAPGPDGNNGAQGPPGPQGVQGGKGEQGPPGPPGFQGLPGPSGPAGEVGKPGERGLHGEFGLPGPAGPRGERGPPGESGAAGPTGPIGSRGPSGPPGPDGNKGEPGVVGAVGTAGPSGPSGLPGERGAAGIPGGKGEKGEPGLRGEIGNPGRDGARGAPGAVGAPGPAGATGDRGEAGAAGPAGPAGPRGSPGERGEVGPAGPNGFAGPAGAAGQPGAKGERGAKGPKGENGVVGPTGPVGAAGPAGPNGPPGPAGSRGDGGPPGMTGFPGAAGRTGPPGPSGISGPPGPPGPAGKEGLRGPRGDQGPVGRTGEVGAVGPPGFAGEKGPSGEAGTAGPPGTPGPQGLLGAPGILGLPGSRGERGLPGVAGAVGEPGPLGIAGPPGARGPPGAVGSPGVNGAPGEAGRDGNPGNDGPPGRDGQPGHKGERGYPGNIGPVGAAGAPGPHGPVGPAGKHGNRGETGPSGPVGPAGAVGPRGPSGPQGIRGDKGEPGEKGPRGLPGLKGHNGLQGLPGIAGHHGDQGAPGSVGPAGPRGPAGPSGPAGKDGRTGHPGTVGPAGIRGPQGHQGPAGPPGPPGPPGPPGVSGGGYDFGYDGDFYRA

Binder	% bound [1] [%]	% bound [2] [%]
YHACYQAGCWIA (disulfide 4-9 (inferred), cyclic, disulfide) [SEQ ID NO 138]	2	1
DWTCSGDHLTWHCNYG (disulfide 4-13 (inferred), cyclic, disulfide) [SEQ ID NO 116]	58	35
DWTCSGDHLTWKCNYG (disulfide 4-13 (inferred), cyclic, disulfide) [SEQ ID NO 117]	38	24
GQWTCSGDEY[dA]WHCNA[dE] (disulfide 5-14 (inferred), cyclic, disulfide) [SEQ ID NO 124]	24	17
GAWTCSGDEYTWHCNYE (disulfide 5-14 (inferred), cyclic, disulfide) [SEQ ID NO 129]	87	84
GQWACSGDEYTWHCNYE (disulfide 5-14 (inferred), cyclic, disulfide) [SEQ ID NO 140]	84	77
QWTCSGDEYTWHCN[dY]E (disulfide 4-13 (inferred); not fully specified (N-terminus); printed as QWTCSGDEYTWHCNyE, cyclic, disulfide) [SEQ ID NO 177]	30	27
DWTCS[dA]DEYTWHCNYE (disulfide 4-13 (inferred), cyclic, disulfide) [SEQ ID NO 179]	81	75
GQWTCSGDEYSWHCNY[dE] (disulfide 5-14 (inferred), cyclic, disulfide) [SEQ ID NO 125]	85	86
[dQ]WTCSGDEYTWHCNYE (disulfide 4-13 (inferred); not fully specified (N-terminus, C-terminus); printed as qWTCSGDEYTWHCNYE, cyclic, disulfide) [SEQ ID NO 164]	46	31
DWTCS[dS]DEYTWHCNYE (disulfide 4-13 (inferred), cyclic, disulfide) [SEQ ID NO 180]	81	72
DWTCS[dR]DEYTWHCNYE (disulfide 4-13 (inferred), cyclic, disulfide) [SEQ ID NO 181]	87	86
GQWTCSGDAYTWHCAYE (disulfide 5-14 (inferred), cyclic, disulfide) [SEQ ID NO 128]	80	72
QWTCSGD[dE]YTWHCNYE (disulfide 4-13 (inferred); not fully specified (N-terminus); printed as QWTCSGDeYTWHCNYE, cyclic, disulfide) [SEQ ID NO 170]	49	35
QWTCSGDEYTWHCNY[dE] (disulfide 4-13 (inferred); not fully specified (N-terminus); printed as QWTCSGDEYTWHCNYe, cyclic, disulfide) [SEQ ID NO 178]	90	87
DWTCS[dL]DEYTWHCNYE (disulfide 4-13 (inferred), cyclic, disulfide) [SEQ ID NO 183]	73	63
QWTCSGDEY[dT]WHCNYE (disulfide 4-13 (inferred); not fully specified (N-terminus); printed as QWTCSGDEYtWHCNYE, cyclic, disulfide) [SEQ ID NO 172]	9	8
GQWTCSGDEYTWHCAYE (disulfide 5-14 (inferred); not fully specified (C-terminus), cyclic, disulfide) [SEQ ID NO 149]	82	82
YH[dA]CYQAGCWIW (disulfide 4-9 (inferred); not fully specified (C-terminus); printed as YHaCYQAGCWIW, cyclic, disulfide) [SEQ ID NO 154]	24	21
WTCSGDEYTWHCNYE (disulfide 3-12 (inferred), cyclic, disulfide) [SEQ ID NO 114]	19	14
GQWTCSGDEYTWHCNY (disulfide 5-14 (inferred), cyclic, disulfide) [SEQ ID NO 123]	59	72

Binder	% bound [1] [%]	% bound [2] [%]
Y[dH]ACYQAGCWIW (disulfide 4-9 (inferred); not fully specified (C-terminus); printed as YhACYQAGCWIW, cyclic, disulfide) [SEQ ID NO 153]	0	0
GQWTCSGDEYTWHCNYE (disulfide 5-14 (inferred), cyclic, disulfide) [SEQ ID NO 122]	71	71
DWTCSGDEYAWHCNY[dE] (disulfide 4-13 (inferred), cyclic, disulfide) [SEQ ID NO 120]	38	28
GQWTCSGAEYTWHCNYE (disulfide 5-14 (inferred), cyclic, disulfide) [SEQ ID NO 143]	66	51
PWTCSGDEYAWHCNY[dE] (disulfide 4-13 (inferred), cyclic, disulfide) [SEQ ID NO 121]	57	72
GQWTCSGDEYTWHCNAE (disulfide 5-14 (inferred); not fully specified (C-terminus), cyclic, disulfide) [SEQ ID NO 150]	16	9
GQWTCSGDEYTWACNYE (disulfide 5-14 (inferred); not fully specified (C-terminus), cyclic, disulfide) [SEQ ID NO 148]	66	73
GQATCSGDEYTWHCNYE (disulfide 5-14 (inferred), cyclic, disulfide) [SEQ ID NO 139]	1	0
DWTCSGDEFTWHCNYE (disulfide 4-13 (inferred), cyclic, disulfide) [SEQ ID NO 119]	55	55
GQWTCSGDAYTWHCNYE (disulfide 5-14 (inferred); not fully specified (C-terminus), cyclic, disulfide) [SEQ ID NO 144]	87	77
GQWTCSGDEYAWHCNY[dE] (disulfide 5-14 (inferred), cyclic, disulfide) [SEQ ID NO 126]	68	73
DWTCS[dY]DEYTWHCNYE (disulfide 4-13 (inferred), cyclic, disulfide) [SEQ ID NO 182]	89	86
QWTCSGDEYAWHCNYE (disulfide 4-13 (inferred); not fully specified (N-terminus, C-terminus), cyclic, disulfide) [SEQ ID NO 146]	82	77
GQWTCSGDEATWHCNYE (disulfide 5-14 (inferred); not fully specified (C-terminus), cyclic, disulfide) [SEQ ID NO 145]	68	50
GQWTCSGDEYTWSCNYE (disulfide 5-14 (inferred), cyclic, disulfide) [SEQ ID NO 127]	80	73
GQWTCSGDEYTWHCNYA (disulfide 5-14 (inferred); not fully specified (C-terminus), cyclic, disulfide) [SEQ ID NO 151]	87	81
GQWTCAGDEYTWHCNYE (disulfide 5-14 (inferred), cyclic, disulfide) [SEQ ID NO 141]	87	83
DWTCSGDPYTWHCNYE (disulfide 4-13 (inferred), cyclic, disulfide) [SEQ ID NO 115]	39	23
YHA[dC]YQAGCWIW (disulfide 4-9 (inferred); not fully specified (C-terminus); printed as YHAcYQAGCWIW, cyclic, disulfide) [SEQ ID NO 155]	15	11
DWTCSGNHLTWYCNYG (disulfide 4-13 (inferred), cyclic, disulfide) [SEQ ID NO 118]	68	67
YHASYQAGSWIW (printed without cysteines (S for C)) [SEQ ID NO 111]	0	24

From patent US20080044360A1 (COLLAGEN MEDICAL, published 2008)
